Each block holds one substance with its values, some of them ahead of it.
Assays:
[1] = target: PD-L1 on PD-L1 expressing cells (IFNg-stimulated THP-1 cells; MDA-MB-231 cells) (Homo sapiens (Human)) (UniProt Q9NZQ7); test: FACS, MDA-MB-231 cells, 1 µg/ml, positive control
[2] = target: human PD-L1 Fc Chimera (R&D Systems, cat. no. 156-B7-100) (human) (UniProt Q9NZQ7); test: ELISA screen, 40 pM hPD-L1
[3] = target: PD-L1 on PD-L1 expressing cells (IFNg-stimulated THP-1 cells; MDA-MB-231 cells) (Homo sapiens (Human)) (UniProt Q9NZQ7); test: FACS, MDA-MB-231 cells, 0.625 µg/ml; negative control (buffer) 69

human PD-L1 Fc Chimera (R&D Systems, cat. no. 156-B7-100) (human), sequence (Q9NZQ7 19-239, change not shown): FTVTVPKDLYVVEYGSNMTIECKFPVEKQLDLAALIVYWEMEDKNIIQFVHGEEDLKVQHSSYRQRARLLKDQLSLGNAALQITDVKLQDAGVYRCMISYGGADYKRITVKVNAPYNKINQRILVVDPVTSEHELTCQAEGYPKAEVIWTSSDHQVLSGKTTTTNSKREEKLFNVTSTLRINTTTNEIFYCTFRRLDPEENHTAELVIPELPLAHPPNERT

MFI [1]: 610
Substance: mouse anti-PD-L1 antibody (R&D Systems, cat. no. MAB1561) (tool reagent)

ELISA response (average) [2]: 0.051 AU
Substance: fusion protein ABD with no Z-fusion partner (periplasmic negative control) (from UniProt P19909)

MFI [3]: 64
Substance: ipilimumab (Yervoy, Bristol-Myers Squibb, bought) (antibody)
